Assay results: patent US20250277045A1 (KEYMED BIOSCIENCES, published 2025)

T1: human BCMA on cells (CHO-hBCMA clone 2C2; NCI-H929; RPMI-8226) (human, UniProt Q02223 1-184)
T1 construct: whole, on cells; also called Human BCMA-CHO; CHO-hBCMA-2C2
T1 sequence (looked up): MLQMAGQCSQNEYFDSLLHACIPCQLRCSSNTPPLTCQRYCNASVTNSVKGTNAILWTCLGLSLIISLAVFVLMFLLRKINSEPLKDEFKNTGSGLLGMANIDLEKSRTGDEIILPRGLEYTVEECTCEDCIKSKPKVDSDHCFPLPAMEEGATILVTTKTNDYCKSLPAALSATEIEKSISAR

T2: human BCMA recombinant antigen (human, UniProt Q02223 1-53)
T2 construct: range 1-53; also called human BCMA recombinant protein
T2 sequence (looked up): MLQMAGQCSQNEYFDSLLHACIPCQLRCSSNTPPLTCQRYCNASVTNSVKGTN

T3: cynomolgus monkey CD3εγ-Fc heterodimer (cynomolgus monkey)
T3 chain 1: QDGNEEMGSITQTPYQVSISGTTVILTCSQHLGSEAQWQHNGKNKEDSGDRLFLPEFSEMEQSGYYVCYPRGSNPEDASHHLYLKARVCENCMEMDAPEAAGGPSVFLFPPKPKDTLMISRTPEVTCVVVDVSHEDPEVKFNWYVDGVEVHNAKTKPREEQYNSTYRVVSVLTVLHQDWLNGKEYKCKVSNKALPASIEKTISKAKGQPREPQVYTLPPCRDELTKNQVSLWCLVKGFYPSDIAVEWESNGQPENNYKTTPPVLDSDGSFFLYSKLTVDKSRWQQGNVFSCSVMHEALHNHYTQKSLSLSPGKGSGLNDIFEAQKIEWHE
T3 chain 2: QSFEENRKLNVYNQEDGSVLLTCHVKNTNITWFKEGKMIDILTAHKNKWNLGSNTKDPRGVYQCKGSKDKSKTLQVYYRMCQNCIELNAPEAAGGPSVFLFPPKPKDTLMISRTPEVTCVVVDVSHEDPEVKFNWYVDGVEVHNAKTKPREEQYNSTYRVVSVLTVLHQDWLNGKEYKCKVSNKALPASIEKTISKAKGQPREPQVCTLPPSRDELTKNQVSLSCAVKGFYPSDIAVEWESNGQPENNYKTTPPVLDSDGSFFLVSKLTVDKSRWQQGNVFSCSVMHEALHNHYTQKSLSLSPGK


Legend:
[1] = target: T4, human CD3 on T cells (Jurkat cells; human peripheral blood CD4+ and CD8+ T cells) (human, UniProt P07766 23-207); experiment: flow cytometry, Jurkat cells
T4 construct: whole, on cells; also called CD3ε
T4 sequence (P07766 23-207): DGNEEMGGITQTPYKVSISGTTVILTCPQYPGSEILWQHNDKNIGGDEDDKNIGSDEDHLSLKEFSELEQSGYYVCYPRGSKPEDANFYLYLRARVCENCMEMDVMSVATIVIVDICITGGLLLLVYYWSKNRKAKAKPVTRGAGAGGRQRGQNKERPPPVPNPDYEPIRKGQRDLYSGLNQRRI
Procedure: Jurkat cells in the logarithmic growth phase were added with 200 μg/mL murine IgG (Jackson ImmunoResearch, 115-005-03) and incubated on ice for 30 min. […] 50 μL/well Alexa Fluro647 labeled goat anti-human IgG Fc (1:300 dilution) was added to the secondary antibody, incubated on ice for 20 min, 50 μL/well PI was added after washing once, incubated for 5 min, and flow cytometer (BD C6) was used to perform detection.

[2] = target: T1, human BCMA on cells (CHO-hBCMA clone …); experiment: flow cytometry, NCI-H929 cells
Procedure: (§1) The primary antibody was washed off, 50 μL/well Alexa Fluro647 labeled goat anti-human IgG Fc (1:300 dilution) was added, incubated on ice for 20 min, 50 μL/well PI was added after washing once, incubated for 5 min, and flow cytometer was used to perform detection.

[3] = target: T1, human BCMA on cells (CHO-hBCMA clone …); experiment: flow cytometry, RPMI-8226 cells
Procedure: as §1

[4] = target: T1, human BCMA on cells (CHO-hBCMA clone …); experiment: flow cytometry, CHO-human BCMA cells
Procedure: (§2) 50 μL/well Alexa Fluro647 labeled goat anti-human IgG Fc (1:300 dilution) was added to the secondary antibody, incubated on ice for 20 min, 50 μL/well PI solution (1:300) was added after washing once, incubated for 5 min, and flow cytometer was used to perform detection.

[5] = target: T5, cynomolgus monkey BCMA on CHO cells (CHO-cynoBCMA clone 1A2) (cynomolgus monkey, UniProt A0A2K5UD97 1-183); experiment: flow cytometry, CHO-cynomolgus monkey BCMA cells
T5 construct: whole, on cells; also called Cynomolgus monkey BCMA-CHO; CHO-cynoBCMA-1A2
T5 sequence (A0A2K5UD97 entry or part of it): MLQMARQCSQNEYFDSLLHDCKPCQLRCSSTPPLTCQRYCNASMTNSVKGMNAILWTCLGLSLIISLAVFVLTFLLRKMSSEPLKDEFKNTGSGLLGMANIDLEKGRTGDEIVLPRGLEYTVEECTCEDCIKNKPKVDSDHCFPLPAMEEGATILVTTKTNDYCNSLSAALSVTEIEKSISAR
Procedure: as §2

[6] = target: T4, human CD3 on T cells (Jurkat cells; …); experiment: flow cytometry, peripheral blood CD4+ T cells (PBMC)
Procedure: (§3) Fresh human or cynomolgus monkey peripheral blood was taken and PBMC was isolated by Ficoll-Paque Plu (GE, 17-1440-03). […] 50 μL/well Alexa Fluro647 labeled goat anti-human IgG Fc (1:300 dilution) was added to the secondary antibody, ice bath for 20 min, 50 μL/well PI was added after washing once, incubated for 5 min, and flow cytometer (BD C6) was used to perform detection.

[7] = target: T4, human CD3 on T cells (Jurkat cells; …); experiment: flow cytometry, peripheral blood CD8+ T cells (PBMC)
Procedure: as §3

[8] = target: T2, human BCMA recombinant antigen; experiment: SPR (Biacore T200), antigen amine-coupled to CM5, antibody as analyte, 1:1 model
Procedure: (§4) 10 μg/mL human or cynomolgus monkey BCMA or CD3εγ recombinant antigen was bound to a CM5 chip (GE healthcare) by amino coupling, controlling the amount of antigen bound to approximately 200 RU. After the baseline plateau, gradient-diluted antibodies (from 10 μg/mL, 2-fold dilutions for 7 gradients) flowed through the chip at a flow rate of 30 μL/min for a binding time of 350 seconds and a dissociation time of 600 seconds. Kinetic constants were fitted using Biacore T200 evaluation software with a 1:1 binding model.

[9] = target: T6, cynomolgus monkey BCMA recombinant antigen (cynomolgus monkey, UniProt A0A2K5UD97 1-51); experiment: as above
T6 construct: range 1-52
T6 sequence (A0A2K5UD97 entry or part of it): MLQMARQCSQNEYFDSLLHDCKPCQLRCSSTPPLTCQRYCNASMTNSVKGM
Procedure: as §4

[10] = target: T3, cynomolgus monkey CD3εγ-Fc heterodimer; experiment: as above
Procedure: as §4

[11] = target: T2, human BCMA recombinant antigen; experiment: competition ELISA, coated human BCMA, antibody varied, then biotinylated human APRIL at 240 ng/mL, SA-HRP
Procedure: 1 μg/mL human BCMA recombinant antigen was prepared with pH 9.6 carbonic acid buffer, added to a maxisorp96-well plate, and coated overnight at 4° C. After blocking with 5% skim milk/PBS for 1 h at room temperature, 50 μL antibody per well (4-fold dilution from 30 μg/mL for a total of 10 gradients) was added and incubated for 30 min at room temperature. […] After 3 washes with 0.05% PBST (PBS+0.05% Tween-20) and PBS respectively, 100 μL of SA-HRP (diluted 1:8000) was added to each well and incubated at room temperature for 45 min. Washing 3 times with 0.05% PBST and PBS respectively, 100 μL TMB color-developing solution was added into each well, after 10 min, 50 μL concentrated sulfuric acid was added into each well to stop the reaction, read OD450 nm by a microplate reader, and perform three-parameter fitting curve using Graphpad software.

Row | Binder | EC50 [1] [nM] | EC50 [2] [nM] | EC50 [3] [nM] | EC50 [4] [nM] | EC50 [5] [nM] | EC50 [6] [nM] | EC50 [7] [nM] | Kd [8] [nM] | Kd [9] [nM] | Kd [10] [nM] | IC50 (read off the curve) [11] [nM]
1 | BCMA×CD3 κλ005 (bispecific antibody, human IgG4 S228P, kappa, lambda) light 1: DIVLTQSPASLAVSPGQRATITCRASKSVSTSGYSYMHWYQKKPGQPPKLLIYLASNLESGVPARFSGSGSGTDFTLTINPVEAEDTANYYCQHSRELPWTFGQGTKVEIKRTVAAPSVFIFPPSDEQLKSGTASVVCLLNNFYPREAKVQWKVDNALQSGNSQESVTEQDSKDSTYSLSSTLTLSKADYEKHKVYACEVTHQGLSSPVTKSFNRGEC heavy 1: QVQLVQSGSELKKPGASVKVSCKASGYIFTNFGMNWVREAPGQGLEWMGWINTYTGEQIYADGFTGRFVFSLDTSVSTAYLQISSLKAEDTAVYFCARGEIYYGYDVGFVYWGQGTLVTVSSASTKGPSVFPLAPCSRSTSESTAALGCLVKDYFPEPVTVSWNSGALTSGVHTFPAVLQSSGLYSLSSVVTVPSSSLGTKTYTCNVDHKPSNTKVDKRVESKYGPPCPPCPAPEFEGGPSVFLFPPKPKDTLMISRTPEVTCVVVDVSQEDPEVQFNWYVDGVEVHNAKTKPREEQFNSTYRVVSVLTVLHQDWLNGKEYKCKVSNKGLASSIEKTISKAKGQPREPQVCTLPPSQEEMTKNQVSLSCAVKGFYPSDIAVEWESNGQPENNYKTTPPVLDSDGSFFLVSKLTVDKSRWQEGNVFSCSVMHEALHNHYTQKSLSLSLGK light 2: QAVVTQEPSLTVSPGGTVTLTCRSSTGAVTTSNYANWVQEKPGQAPRGLIGGTNKRAPWTPARFSGSLLGGKAALTITGAQAEDEAEYYCVLWYSNLWVFGGGTKLTVLGQPKAAPSVTLFPPSSEELQANKATLVCLISDFYPGAVTVAWKADSSPVKAGVETTTPSKQSNNKYAASSYLSLTPEQWKSHRSYSCQVTHEGSTVEKTVAPTECS heavy 2: EVQLVESGGGLVQPGGSLRLSCAASGFTFNTYAMNWVRKAPGKGLEWVGRIRSKYNNYATYYADSVKDRFTISRDDSKNSLYLQMNSLKTEDTAVYYCVRHGNFGNSYVSWFAYWGQGTLVTVSSASTKGPSVFPLAPCSRSTSESTAALGCLVKDYFPEPVTVSWNSGALTSGVHTFPAVLQSSGLYSLSSVVTVPSSSLGTKTYTCNVDHKPSNTKVDKRVESKYGPPCPPCPAPEFEGGPSVFLFPPKPKDTLMISRTPEVTCVVVDVSQEDPEVQFNWYVDGVEVHNAKTKPREEQFNSTYRVVSVLTVLHQDWLNGKEYKCKVSNKGLASSIEKTISKAKGQPREPQVYTLPPCQEEMTKNQVSLWCLVKGFYPSDIAVEWESNGQPENNYKTTPPVLDSDGSFFLYSKLTVDKSRWQEGNVFSCSVMHEALHNHYTQKSLSLSLGK | 51 | 33 | 38 | 24 | 3 | 66 | 60 | 1.1 | 0.09 | 20 | ~3
2 | BCMA×CD3 κλ006 (bispecific antibody, human IgG4 S228P, kappa, lambda) light 1: DIVLTQSPASLAVSPGQRATITCRASKSVTTSGYSYIHWYQKKPGQPPKLLIYLASDLEAGVPARFSGSGSGTDFTLTINPVEAEDTANYYCQHSRELPWTFGQGTKVEIKRTVAAPSVFIFPPSDEQLKSGTASVVCLLNNFYPREAKVQWKVDNALQSGNSQESVTEQDSKDSTYSLSSTLTLSKADYEKHKVYACEVTHQGLSSPVTKSFNRGEC heavy 1: QVQLVQSGSELKKPGASVKVSCKASGYIFTNFGMNWVREAPGQGLEWMGWINTYTGEQIYADGFTGRFVFSLDTSVSTAYLQISSLKAEDTAVYFCARGEIYYGYDVGFVYWGQGTLVTVSSASTKGPSVFPLAPCSRSTSESTAALGCLVKDYFPEPVTVSWNSGALTSGVHTFPAVLQSSGLYSLSSVVTVPSSSLGTKTYTCNVDHKPSNTKVDKRVESKYGPPCPPCPAPEFEGGPSVFLFPPKPKDTLMISRTPEVTCVVVDVSQEDPEVQFNWYVDGVEVHNAKTKPREEQFNSTYRVVSVLTVLHQDWLNGKEYKCKVSNKGLASSIEKTISKAKGQPREPQVCTLPPSQEEMTKNQVSLSCAVKGFYPSDIAVEWESNGQPENNYKTTPPVLDSDGSFFLVSKLTVDKSRWQEGNVFSCSVMHEALHNHYTQKSLSLSLGK light 2: QAVVTQEPSLTVSPGGTVTLTCRSSTGAVTTSNYANWVQEKPGQAPRGLIGGTNKRAPWTPARFSGSLLGGKAALTITGAQAEDEAEYYCVLWYSNLWVFGGGTKLTVLGQPKAAPSVTLFPPSSEELQANKATLVCLISDFYPGAVTVAWKADSSPVKAGVETTTPSKQSNNKYAASSYLSLTPEQWKSHRSYSCQVTHEGSTVEKTVAPTECS heavy 2: EVQLVESGGGLVQPGGSLRLSCAASGFTFNTYAMNWVRKAPGKGLEWVGRIRSKYNNYATYYADSVKDRFTISRDDSKNSLYLQMNSLKTEDTAVYYCVRHGNFGNSYVSWFAYWGQGTLVTVSSASTKGPSVFPLAPCSRSTSESTAALGCLVKDYFPEPVTVSWNSGALTSGVHTFPAVLQSSGLYSLSSVVTVPSSSLGTKTYTCNVDHKPSNTKVDKRVESKYGPPCPPCPAPEFEGGPSVFLFPPKPKDTLMISRTPEVTCVVVDVSQEDPEVQFNWYVDGVEVHNAKTKPREEQFNSTYRVVSVLTVLHQDWLNGKEYKCKVSNKGLASSIEKTISKAKGQPREPQVYTLPPCQEEMTKNQVSLWCLVKGFYPSDIAVEWESNGQPENNYKTTPPVLDSDGSFFLYSKLTVDKSRWQEGNVFSCSVMHEALHNHYTQKSLSLSLGK | 56 | 32 | 19 | 16 | 3 | 91 | 93 | 1.2 | 0.1 | 33 | ~2
